Source: paper PMC11852578, “Enhanced Site-Specific Fluorescent Labeling of Membrane Proteins Using Native Nanodiscs” (Biomolecules, 2025)
Substitutions are numbered along the chain they refer to. Names may count otherwise.

How the values were obtained:
[1] = molecular target: the molecule itself; test: SDS-PAGE; HpUreI L134C purified in LDAO instead of DDM
[2] = molecular target: the molecule itself; test: SEC; HpUreI L134C in Glyco-DIBMA native nanodiscs, labelled with AF647 maleimide; standard buffer 150 mM NaCl, 50 mM Tris, pH 7.4
[3] = molecular target: the molecule itself; test: fluorescence correlation spectroscopy (molecular brightness); SEC-purified, AF647-labelled protein in Glyco-DIBMA nanodiscs; brightness compared with free AF647 maleimide dye at the same laser power, assuming labelling of all monomers
[4] = molecular target: the molecule itself; test: SEC; KvAP in 0.25% (w/v) DM micelles; Superdex 200 Increase 10/300; SEC buffer 100 mM KCl, 25 mM Tris, pH 8; size estimated against gel filtration standards
[5] = molecular target: the molecule itself; test: SEC; KvAP in Glyco-DIBMA native nanodiscs, labelled with AF647 maleimide; standard buffer 150 mM KCl, 50 mM Tris, pH 7.4; UV and fluorescence detection

B1: HpUreI L134C single-cysteine mutant, Helicobacter pylori proton-gated urea channel, in detergent (DDM or LDAO) (natural protein)
chain: MLGLVLLYVGIVLISNGICGLTKVDPKSTAVMNFFVGGLSIICNIVVITYSALHPTAPVEGAEDIAQVSHHLTSFYGPATGLLFGFTYLYAAINHTFGLDWRPYSWYSLFVAINTIPAAILSHYSDMLDDHKVCGITEGDWWAIIWLAWGVLWLTAFIENILKIPLGKFTPWLAIIEGILTAWIPAWLLFIQHWV
notes: urea channel HpUreI, Helicobacter pylori; The hexamer remained unlabelled in detergent; with TCEP only aggregated and non-hexameric oligomers were labelled; also called detergent-solubilized HpUreI; source: E. coli C43, membranes solubilised in DDM or LDAO, purified (cobalt beads, HRV 3C cleavage, SEC)
With B1 the “stoichiometry N” value [1] was 6.

B2: HpUreI L134C single-cysteine mutant labelled with AF647 maleimide, in Glyco-DIBMA native nanodiscs (natural protein)
chain: B1 chain
modifications: Alexa Fluor 647 maleimide on the introduced cysteine L134C
notes: urea channel HpUreI, Helicobacter pylori; Same construct as m7, but labelled and in a nanodisc; no removal of the His tag is told for the nanodisc preparation; also called nanodisc-embedded HpUreI; source: E. coli C43, membranes extracted with Glyco-DIBMA, purified (Ni-NTA with on-column labelling, SEC)
In the case of B2, the “stoichiometry N” value [2] is reported as 6 and the “stoichiometry N” value [3] is reported as roughly 6.

B3: KvAP wild type, archaeal voltage-gated potassium channel from Aeropyrum pernix, in DM detergent micelles (natural protein)
chain: GGRVRNIGDVMEHPLVELGVSYAALLSVIVVVVEYTMQLSGEYLVRLYLVDLILVIILWADYAYRAYKSGDPAGYVKKTLYEIPALVPAGLLALIEGHLAGLGLFRLVRLLRFLRILLIISRGSKFLSAIADAADKIRFYHLFGAVMLTVLYGAFAIYIVEYPDPNSSIKSVFDALWWAVVTATTVGYGDVVPATPIGKVIGIAVMLTGISALTLLIGTVSNMFQKILVGEPEPSCSPAKLAEMVSSMSEEEFEEFVRTLKNLRRLENSMK
notes: voltage-gated potassium channel KvAP, Aeropyrum pernix; native cysteine printed as C260; Labelling with AF647 maleimide failed in detergent, so the protein was unlabelled; also called wild-type KvAP; source: E. coli C43, pET21a-derived vector, membranes solubilised in DM, purified (Ni-NTA, SEC)
With B3 the “stoichiometry N” value [4] was 4.

B4: KvAP K102C single-cysteine mutant labelled with AF647 maleimide, in Glyco-DIBMA native nanodiscs (natural protein, Aeropyrum pernix)
chain: B3 chain with K78C, C236A
modifications: Alexa Fluor 647 maleimide on the introduced cysteine K102C
notes: voltage-gated potassium channel KvAP, Aeropyrum pernix; native cysteine mutated to alanine and cysteine introduced at K102; Same construct as m3, but labelled and in a nanodisc; also called mutant K102C; source: E. coli C43, membranes extracted with Glyco-DIBMA, purified (Ni-NTA with on-column labelling, SEC)
For B4, the “stoichiometry N” value [3] was roughly 4.

B5: KvAP E275C single-cysteine mutant labelled with AF647 maleimide, in Glyco-DIBMA native nanodiscs (natural protein, Aeropyrum pernix)
chain: B3 chain with C236A, E251C
modifications: Alexa Fluor 647 maleimide on the introduced cysteine E275C
notes: voltage-gated potassium channel KvAP, Aeropyrum pernix; native cysteine mutated to alanine and cysteine introduced at E275; Same construct as m4, but labelled and in a nanodisc; also called mutant E275C; source: E. coli C43, membranes extracted with Glyco-DIBMA, purified (Ni-NTA with on-column labelling, SEC)
With B5 the “stoichiometry N” value [3] was roughly 4.

B6: KvAP wild type labelled with AF647 maleimide, in Glyco-DIBMA native nanodiscs (natural protein, Aeropyrum pernix)
chain: B3 chain
modifications: Alexa Fluor 647 maleimide on the native cysteine C260
notes: voltage-gated potassium channel KvAP, Aeropyrum pernix; native cysteine printed as C260; Same construct as m1, but labelled and in a polymer-encapsulated lipid nanodisc; also called wild-type KvAP; nanodisc-purified wild-type KvAP; source: E. coli C43, membranes extracted with Glyco-DIBMA, purified (Ni-NTA with on-column labelling, SEC)
With B6 the “stoichiometry N” value [5] was 4 and the “stoichiometry N” value [3] was roughly 4.

B7: KvAP K102C single-cysteine mutant, in DM detergent micelles (natural protein, Aeropyrum pernix)
chain: B3 chain with K78C, C236A
notes: voltage-gated potassium channel KvAP, Aeropyrum pernix; native cysteine mutated to alanine and cysteine introduced at K102; Labelling failed in detergent, so the protein was unlabelled; source: E. coli C43, pET21a-derived vector, membranes solubilised in DM, purified (Ni-NTA, SEC)
For B7, the “stoichiometry N” value [4] was 4.

B8: KvAP E275C single-cysteine mutant, in DM detergent micelles (natural protein, Aeropyrum pernix)
chain: B3 chain with C236A, E251C
notes: voltage-gated potassium channel KvAP, Aeropyrum pernix; native cysteine mutated to alanine and cysteine introduced at E275; Labelling failed in detergent, so the protein was unlabelled; source: E. coli C43, pET21a-derived vector, membranes solubilised in DM, purified (Ni-NTA, SEC)
With B8 the “stoichiometry N” value [4] was 4.
